Measurements from the supplement of paper PMC7877785.
± gives the uncertainty stated by the source.

Experiment: self-splicing fitness, log relative to wild type (ln ratio); higher = more splicing; Tetrahymena group I intron in knt gene, E. coli kanamycin selection, DiMSum; sequences stand for … in CUCUCU…GGAGGGAAAAGUUAUCAGGCAUGCACCUGGUAGCUAGUCUUUAAACCAAUAGAUUGCAUCGGUUUAAAAGGCAAGACCGUCAAAUUGCGGGAAAGGGGUCAACAGCCGUUCAGUACCAAGUCUCAGGGGAAACUUUGAGAUGGCCUUGCAAAGGGUAUGGUAAUAAGCUGACGGACAUGGUCCUAACCACGCAGCCAAGUCCUAAGUCAACAGAUCUUCUGUUGAUAUGGAUGCAGUUCACAGACUAAAUGUCGGUCGGGGAAGAUGUAUUCUUCUCAUAAGAUAUAGUCGGACCUCUCCUUAAUGGGAGCUAGCGGAUGAAGUGAUGCAACACUGGAGCCGCUGGGAACUAAUUUGUAUGCGAAAGUAUAUUGAUUAGUUUUGGAGUACUCGUGGUCG
Outline: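 Six replicate transformations of E. coli BL21(DE3) with a pET-22b(+) library were grown overnight at 37°C or 30°C. The library randomised all eight P1ex-region intron nucleotides, the intron lying in the knt kanamycin-resistance gene, and plates were LB agar with or without 25 μg/mL kanamycin plus 100 μg/mL carbenicillin, 50 μM IPTG and 0.2% rhamnose. Pooled colonies were amplicon-sequenced on an Illumina HiSeq 2500, and fitness is the DiMSum error-weighted combination of wild-type-normalised replicate fold changes, kanamycin versus none.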

| Sequence | self-splicing fitness (ln) (30 °C) | self-splicing fitness (ln) (37 °C) |
| --- | --- | --- |
| UUCAAGCAAUAUUACGGCUU | -2.58 ± 0.14 | -1.16 ± 0.14 |
| UUCAAGCAAUAUUACGGGAA | -1.32 ± 0.11 | -0.286 ± 0.094 |
| UUCAAGCAAUAUUACGGGUC | -4.54 ± 0.32 | -1.53 ± 0.14 |
| UUCAAGCAAUAUUACGUCAC | -3.57 ± 0.34 | -2.42 ± 0.39 |
| UUCAAGCAAUAUUACGUCGG | -0.722 ± 0.067 | -0.516 ± 0.081 |
| UUCAAGCAAUAUUACGUGAC | -4.47 ± 0.39 | -2.69 ± 0.27 |
| UUCAAGCAAUAUUACGUGAG | -0.36 ± 0.071 | 0.0932 ± 0.088 |
| UUCAAGCAAUAUUACGUGGA | -2.17 ± 0.17 | -2.52 ± 0.15 |
| UUCCAGCAAUAUUACGAGAG | -1.82 ± 0.093 | -0.571 ± 0.13 |
| UUCCAGCAAUAUUACGAGCG | -1.6 ± 0.096 | -1.26 ± 0.1 |
| UUCCAGCAAUAUUACGAGGC | -3.72 ± 0.35 | -2.58 ± 0.27 |
| UUCCAGCAAUAUUACGAUCC | -1.46 ± 0.45 |  |
| UUCCAGCAAUAUUACGAUUA | -0.297 ± 0.12 | -0.0509 ± 0.1 |
| UUCCAGCAAUAUUACGCAAC | -3.02 ± 0.44 |  |
| UUCCAGCAAUAUUACGCAAU | -2.02 ± 0.17 | -1.31 ± 0.14 |
| UUCCAGCAAUAUUACGCGAA | -1.64 ± 0.079 | -0.865 ± 0.089 |
| UUCCAGCAAUAUUACGGAUC | -3.83 ± 0.35 | -1.75 ± 0.16 |
| UUCCAGCAAUAUUACGGGAA | -2.87 ± 0.35 | -2.84 ± 0.34 |
| UUCCAGCAAUAUUACGGGAU | -3.25 ± 0.11 | -3.13 ± 0.19 |
| UUCCAGCAAUAUUACGGUAG | -0.0875 ± 0.065 | 0.438 ± 0.079 |
| UUCCAGCAAUAUUACGGUCU | -2.54 ± 0.33 | -2.13 ± 0.3 |
| UUCCAGCAAUAUUACGGUGU | -1.19 ± 0.092 | -1.1 ± 0.13 |
| UUCCAGCAAUAUUACGUGAG | 0.114 ± 0.062 | 0.597 ± 0.08 |
| UUCCAGCAAUAUUACGUUAG | -2.57 ± 0.17 | -0.904 ± 0.16 |
| UUCGAGCAAUAUUACGAAGC | -2.63 ± 0.33 | -1.91 ± 0.36 |

| Sequence | self-splicing fitness (ln) (30 °C) | self-splicing fitness (ln) (37 °C) |
| --- | --- | --- |
| UUCGAGCAAUAUUACGACAU | -3.097 ± 0.026 | -1.94 ± 0.038 |
| UUCGAGCAAUAUUACGACGA | -0.356 ± 0.3 | -0.0591 ± 0.21 |
| UUCGAGCAAUAUUACGAGCG | -3.41 ± 0.4 | -1.47 ± 0.2 |
| UUCGAGCAAUAUUACGAUGA | -0.824 ± 0.12 | -0.0637 ± 0.1 |
| UUCGAGCAAUAUUACGCCAC |  | -1.4 ± 0.46 |
| UUCGAGCAAUAUUACGCCGG | -1.98 ± 0.39 |  |
| UUCGAGCAAUAUUACGGAAU | -3.13 ± 0.18 | -2.87 ± 0.27 |
| UUCGAGCAAUAUUACGGAGA | -1.63 ± 0.22 | -1.38 ± 0.22 |
| UUCGAGCAAUAUUACGGGAU | -3.04 ± 0.25 | -2.05 ± 0.19 |
| UUCGAGCAAUAUUACGGGGC | -2.86 ± 0.27 | -1.48 ± 0.4 |
| UUCGAGCAAUAUUACGGUAU | -3.95 ± 0.22 | -2.22 ± 0.23 |
| UUCGAGCAAUAUUACGGUCA | -1.71 ± 0.15 | -1.26 ± 0.13 |
| UUCGAGCAAUAUUACGGUCG |  | -1.91 ± 0.36 |
| UUCGAGCAAUAUUACGUACU | -2.87 ± 0.42 | -2.01 ± 0.36 |
| UUCGAGCAAUAUUACGUGAG | -1.12 ± 0.067 | -0.0842 ± 0.11 |
| UUCGAGCAAUAUUACGUUGU | -2.49 ± 0.18 | -2.75 ± 0.24 |
| UUCUAGCAAUAUUACGAAAG |  | -2.87 ± 0.32 |
| UUCUAGCAAUAUUACGAGUU | -2.55 ± 0.15 | -1.92 ± 0.13 |
| UUCUAGCAAUAUUACGAUAA | -1.46 ± 0.16 | -0.147 ± 0.19 |
| UUCUAGCAAUAUUACGAUAC | -2.08 ± 0.38 | -2.64 ± 0.41 |
| UUCUAGCAAUAUUACGCCGG |  | -2.05 ± 0.37 |
| UUCUAGCAAUAUUACGCGAU | -1.99 ± 0.22 |  |
| UUCUAGCAAUAUUACGCUCG | -2.13 ± 0.26 | -2.09 ± 0.49 |
| UUCUAGCAAUAUUACGGAAU | -4.1 ± 0.39 | -1.91 ± 0.33 |
| UUCUAGCAAUAUUACGGCAA | 0.293 ± 0.1 | 0.334 ± 0.11 |
